The data set relates to MS2 coat protein. Nature of the data set: apparent KD of MS2 coat protein; higher = weaker reporter binding. The note with it: Eterna round: R107. Put shortly: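 Titration buffer: 100 mM Tris-HCl pH 7.5, 80 mM KCl, 4 mM MgCl2, without or with constant ligand. Designed RNA switches transcribed on-chip from Illumina sequencing clusters received SNAP-549-labelled MS2 coat protein in twofold steps from 0.7 or 1.5 nM to 3 µM. Apparent KD is the median per design of fits to normalised cluster binding curves.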

Setting [1] is: input ligand: theophylline 20 uM.
[2] abbreviates: input ligand: tryptophan 2.4 mM.
Where [3] appears, read: input ligand: theophylline 2 mM.

The text below walks through data of the supplement of paper PMC9170038.

Take “GGUGAUCCGUAUCACCGGAUCAUCGGUGAUACCAGCAUCGAAAGAUGCCCUUGGCAGCACCAACAUGAGGAUCACCCAUGUAAUA [(M)'-(T)'-(M)''-(T1)-(T2)-(M1)-(M2)_Design6]”: the “apparent KD of MS2 coat protein” value was determined as 70.3 nM (input ligand: arginine 13.2 mM), 67 nM under setting [1] and 98.4 nM under setting [2].

For the sequence “GGUGGGACUUGUGAUACCAGCCUAAUUCGAAUCGAAUUGCACAUGAGGAUCACCCAUGUCGGCCCUUGGCAGCAUGAGUAUUUAU [Aagexe]”, the “apparent KD of MS2 coat protein” value reads like this: (input ligand: arginine 13.2 mM) 104 nM; under setting [1], 129 nM; under setting [2], 255 nM.

Turning to “GGUUAACAUGAGGAUCACCCAUGUCUUGAUACCAGUCGUUAUCUUGACCCUUGGCAGCAAGAUGACCGUUAGCAGCCGUCUUCUC [theeternabot_sameState_MS2_Theo_A_45]”, the “apparent KD of MS2 coat protein” value was found to be 11.9 nM (input ligand: arginine 13.2 mM), 16.6 nM under setting [1] and 13.2 nM under setting [2].

Take “GGUUACUCUACGGCCGCCACUGGGCAUGUAAAUAACAUGAGGAUCACCCAUGUGGAUUAAAAUUACAGGACCGGGUAGUGUAACC [Tryptophan B 21]”: the “apparent KD of MS2 coat protein” value stood at 86.6 nM (input ligand: arginine 13.2 mM); 300 nM (input ligand: none); 239 nM under setting [1]; 345 nM under setting [3]; 36.1 nM under setting [2].

For “GGUUGGUGUGGAGACAUAUUGAUCACUGAAGGAGCGGGAAUAAACCCAGGUAGGUCGCAGAGAUCCACAUGAGGAUCACCCAUGU [!0.Q]”, the “apparent KD of MS2 coat protein” value came to 80.8 nM (input ligand: arginine 13.2 mM); 40.2 nM (input ligand: none); 68.9 nM under setting [1]; 86.6 nM under setting [3]; 36.2 nM under setting [2].

As to “GUAACACAUGAGGAUCACCCAUGUUCCGAUACCAGUAUUGAAGAUUACCCUUGGCAGCGGGUAGGUCGGAGUGGACGGCCCGAGC [theeternabot_sameState_MS2_Theo_A_8]”, the “apparent KD of MS2 coat protein” value runs as follows: (input ligand: arginine 13.2 mM) 17.9 nM; under setting [1], 25 nM; under setting [2], 23.7 nM.

With “GUAUAGUCUCGAAGGAGCGUCACAUGAGGAUCACCCAUGUACAUGAGGAUCACCCAUGUGUGGCAGGUAGGUCGCGAGCUAUACC [Exclusion Arginine B GF8]”, the “apparent KD of MS2 coat protein” value reads like this: (input ligand: arginine 13.2 mM) 136 nM; (input ligand: none) 265 nM; under setting [1], 228 nM; under setting [3], 281 nM; under setting [2], 312 nM.

Consider “GUAUGGAAACAUACUAGGGUAUCAUGAGAUACCAGUACAGAAAUGUACCCUUGGCAGCUCUAGCAUACAUGAGGAUCACCCAUGU [Ex Theophylline A 6]”, for which the “apparent KD of MS2 coat protein” value reads like this: (input ligand: arginine 13.2 mM) 15.4 nM; under setting [1], 20 nM; under setting [2], 12 nM.

For the sequence “GUCAGAACAUAUCAUGUUCUGGCACUGGAAGGAGCGAGCGAGAGCUCAGGUAGGUCGCCAGAACAUGAGGAUCACCCAUGUAAUA [(A)''-(M)'-(A)'(Arg1)-(Arg2)-(M1)-(M2)_Design11]”, the “apparent KD of MS2 coat protein” value (input ligand: arginine 13.2 mM) is 50.5 nM; the “apparent KD of MS2 coat protein” value (input ligand: none) worked out at 63.4 nM; the “apparent KD of MS2 coat protein” value under setting [1] was 95.2 nM; the “apparent KD of MS2 coat protein” value under setting [3] is 296 nM; the “apparent KD of MS2 coat protein” value under setting [2] turned out to be 49 nM.

On to “GUCAGUAGAACAGAUACCAGUCAAAAGCUGUGAUCUCAUAACAUGAGGAUCACCCAUGUUGACCCUUGGCAGCUGUGGGCGAGGG [#19 Exclusion-TheophyllineB]”, for which the “apparent KD of MS2 coat protein” value (input ligand: arginine 13.2 mM) came out at 27 nM, the “apparent KD of MS2 coat protein” value under setting [1] worked out at 29.1 nM and the “apparent KD of MS2 coat protein” value under setting [2] was determined as 19.1 nM.

For “GUCCUAGCGAGCGCUCGCUAGGACGCGGAUACCAGCGAGGUCCAUCGCCCUUGGCAGCCGAACAUGAGGAUCACCCAUGUCGGUA [#1 Same State - Theophylline A Attempt #16 (HarryS)]”, the “apparent KD of MS2 coat protein” value by setting is: (input ligand: arginine 13.2 mM) 8.3 nM; (input ligand: none) 11.6 nM; under setting [1], 13.2 nM; under setting [3], 13.4 nM; under setting [2], 9.97 nM.

For the sequence “GUCUGUGACUGAAGGAGCGACAUGAGGAUCACCCAUGUCUCCCGUUAUGGGAGUUCCUUAGGUCAGGUAGGUCGCAGUCACAGAC [#1 Exclusion - Arginine B Attempt #28 (Inspired by Omei)]”, the “apparent KD of MS2 coat protein” value reads like this: (input ligand: arginine 13.2 mM) 71.4 nM; (input ligand: none) 112 nM; under setting [1], 137 nM; under setting [3], 152 nM; under setting [2], 103 nM.

With “GUGGACAUGAGGAUCACCCAUGUAAGUCGGCGAGGACCGGUACGGCCGCCACUCGUGUUCUGUCUCAGCUCAAACGUAGCCGGAA [theeternabot_sameState_MS2_Trp_A_13]”, the “apparent KD of MS2 coat protein” value runs as follows: (input ligand: arginine 13.2 mM) 34.2 nM; under setting [1], 51.8 nM; under setting [3], 39.2 nM.

Regarding “GUGGAGACCUCGGCCGCCACUCUCCAUGAGGAUCUCCCAUGUAACAUGAGGAUCACCCAUGUGCUGAGGACCGGGAGGUCCUGAA [Same State Tryptophan B GF 19]”, the “apparent KD of MS2 coat protein” value worked out at 15.7 nM (input ligand: arginine 13.2 mM); 9.47 nM (input ligand: none); 13.4 nM under setting [1]; 11 nM under setting [3]; 9.55 nM under setting [2].

Regarding “GUGUACAUGAGGAUCACCCAUGUCGAGUUACGAGGACCGGUACGGCCGCCACUCGGCGGCUCGACACGGAUAGCGAUGCGUUGCU [#18 Exclusion Tryptophan A]”, the “apparent KD of MS2 coat protein” value amounted to 24.6 nM (input ligand: arginine 13.2 mM), 49.5 nM under setting [1] and 44.1 nM under setting [3].

Take “GUUAUAUACUCGGCCGCCACUGAGAGAGUCAUGUAAACAUGAGGAUCACCCAUGUAAUAUAUAUACAGGACCGGGAGUAUGGUAA [4.E]”: the “apparent KD of MS2 coat protein” value is, setting by setting: (input ligand: arginine 13.2 mM) 12.1 nM; under setting [1], 18.6 nM; under setting [3], 14 nM.

Regarding “GUUAUAUUAAUUGAUACCAGCGAGAAAACAUGAGGAUCACCCAUGUUCGCCCAUGUUAAGCGCCCUUGGCAGCAAUUUUAUUAGC [AstrosExyTheB#2]”, the “apparent KD of MS2 coat protein” value is 32.1 nM (input ligand: arginine 13.2 mM), 44.3 nM under setting [1] and 37.5 nM under setting [2].

In the case of “GUUAUGGACCUGGAUACCAGCUGGUACAAGGGCGGUCUACAUGAGGAUCACCCAUGUGUCAGCCCUUGGCAGCCAGCAACCGGCA [Teraus]”, the “apparent KD of MS2 coat protein” value worked out at 9.36 nM (input ligand: arginine 13.2 mM), 12.5 nM under setting [1] and 8.95 nM under setting [2].

Regarding “GUUGGACUUUCGGCCGCCACUGAGAGAGUCAUGUGAACAUGAGGAUCACCCAUGUAAUAUAUAUACAGGACCGGGAGGGUUGUAA [4.M]”, the “apparent KD of MS2 coat protein” value reads like this: (input ligand: arginine 13.2 mM) 11.7 nM; under setting [1], 22 nM; under setting [3], 13.9 nM.

In the case of “GUUGUAUACUCGGCCGCCACUGAGAGAGUCAUGUGAACAUGAGGAUCACCCAUGUAAUAUAUAUACAGGACCGGGAGUGUGGUAA [4.H]”, the “apparent KD of MS2 coat protein” value turned out to be 14.5 nM (input ligand: arginine 13.2 mM); 16.8 nM (input ligand: none); 16.5 nM under setting [1]; 14.4 nM under setting [3]; 15.8 nM under setting [2].

For the sequence “UAAUCAGUGCCGGUUCUCGGAUCCUCAUGUCGAGGACCGGUACGGCCGCCACUCGAAACAUGAGGAUCACCCAUGUAAUAAUAAU [#09 Exclusion Tryptophan A]”, the “apparent KD of MS2 coat protein” value is 44.2 nM (input ligand: arginine 13.2 mM), 116 nM under setting [1] and 103 nM under setting [3].

Consider “UAAUCUGGUCUUCGAUAGGUGAUCCUCAAACGAGGACCGGUACGGCCGCCACUCGAUAACAUGAGGAUCACCCAUGUACGAGUGA [|T'-M'-Trp-Ms2|_Design16b]”, for which the “apparent KD of MS2 coat protein” value reads like this: (input ligand: arginine 13.2 mM) 52.8 nM; (input ligand: none) 134 nM; under setting [1], 155 nM; under setting [3], 205 nM; under setting [2], 119 nM.

As to “UACAUACAUGAGGAUCACCCAUGUUGCGAUACCAGCGAAAGAGACCGCCCUUGGCAGCGCUCAUUUAGUUCCAUUCUUGAUCGAA [theeternabot_sameState_MS2_Theo_A_4]”, the “apparent KD of MS2 coat protein” value runs as follows: (input ligand: arginine 13.2 mM) 14.5 nM; under setting [1], 23.7 nM; under setting [2], 14.7 nM.

For the sequence “UACAUGAGGAUCACCCAUGUCCCAUGUGAACGAGGACCGGUACGGCCGCCACUCGACCGAGGCGGCACAUGAGGAUCACCCGCAU [whbob_SS_trypto A_2s15]”, the “apparent KD of MS2 coat protein” value is, setting by setting: (input ligand: arginine 13.2 mM) 121 nM; under setting [1], 917 nM; under setting [3], 1140 nM.

“UACAUGAGGAUCACCCAUGUGUAGAGGGAUACCAGUGACAGUAAGCACCCUUGGCAGCCCGUGAACAAAGGGUGGGCAAAAUAGU [#16 Exclusion-TheophyllineA]”: the “apparent KD of MS2 coat protein” value stood at 48.2 nM (input ligand: arginine 13.2 mM); 39.2 nM (input ligand: none); 60.3 nM under setting [1]; 47.4 nM under setting [3]; 33.9 nM under setting [2].
